Consider 2 sequences from article PMC10442045.

Common to all, as to conditions: LightShift EMSA: 1x binding buffer, 2.5% glycerol, 5 mM MgCl2, 0.05% NP-40, 5 mM EDTA, 20 ng probe, 0-0.5 ng protein (so in the source), 20 uL, 20 min at 26 C; 6% …
Data set [1] addresses T1, OmpR (Pseudomonas aeruginosa PA14) (UniProt A0A0H2ZIR0).
T1 sequence: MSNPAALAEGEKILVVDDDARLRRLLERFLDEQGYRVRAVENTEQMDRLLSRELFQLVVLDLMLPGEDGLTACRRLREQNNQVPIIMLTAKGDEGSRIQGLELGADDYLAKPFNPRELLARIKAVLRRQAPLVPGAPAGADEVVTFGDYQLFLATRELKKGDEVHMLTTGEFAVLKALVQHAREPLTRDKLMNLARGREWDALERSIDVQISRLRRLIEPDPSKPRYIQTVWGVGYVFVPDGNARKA
As to the kind of experiment: competition.

In data set [2] the target is T2, OxyR (Pseudomonas aeruginosa PA14) (UniProt A0A0H2ZI92).
T2 sequence: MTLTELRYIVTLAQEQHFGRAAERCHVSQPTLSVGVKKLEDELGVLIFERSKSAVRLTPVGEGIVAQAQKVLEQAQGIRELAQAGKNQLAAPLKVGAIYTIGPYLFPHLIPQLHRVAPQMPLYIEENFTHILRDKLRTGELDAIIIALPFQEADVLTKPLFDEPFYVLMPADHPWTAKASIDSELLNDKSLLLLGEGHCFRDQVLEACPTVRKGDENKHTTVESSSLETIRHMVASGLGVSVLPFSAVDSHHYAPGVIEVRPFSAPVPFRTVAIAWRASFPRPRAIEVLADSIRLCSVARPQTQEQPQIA
As to the kind of experiment: competition.

The target in data set [3] is T1, OmpR (Pseudomonas aeruginosa PA14). In words: EMSA.
For data set [4], the target named is T2, OxyR (Pseudomonas aeruginosa PA14). As to the kind of experiment: EMSA.

On to “CGATGCGCCCGTCGGCGTAGCGTTTATGTAGTTCAGCGCGCGATACACCTGTCCCTTGAAGGCGGAGGGATACGGGCTTTCCTCGTAGAAGCCGGTGGCTTCGTTGAGCACCTCCCAATCGCTGTCCTGGGTCAGCACGGCGATTCCGGGCGGGGTCGCATGATACAGGCCGTTCGTGGGGCGCCAGTATTCGATGGTTCGGGGCAT (double strand) [Unrelated DNA (control)]”, for which the binding entry in data set [1] and in data set [2] was “no binding” throughout.
For “GGGAGTCCAACGAAAATTTTATTTTGCAAATCCATAGACCTGTTCTAGCGTCTTTTGTAGTTCGTCGCCAGTGACGGACCAGAGGGATCGCCAAGGACAGGTTCTGCGCCGTTTTCCCTGTCATGCCTGTGATCCAGCAAGGGACTGCGATGATCAGGGCATCCCCCGATGCATTGCGCCCCCACCATTGCATCGGAGTCAGCCGCC (double strand) [Bio-PH3-T6SS left]”, the binding result in data set [3] and in data set [4] was “binds” throughout.
